According to patent US10786536B2, “Cardiac neural crest cells and methods of use thereof” (VESTION, INC., priority 2013, dated 2020):
“Also recorded” adds a separate entry of the source.

Legend:
Type in all cases: cell-based, mouse
EGFP^(+) cells (NCC^kit) = test: neonatal cKit^CreERT2/IRG myocardial explant culture with or without MSC feeders, live-cell quantification of EGFP^(+) cells
Experimental: To study the mechanisms controlling migration and proliferation in postnatal cardiac NCC^kit clones, 2-day old cKit^CreERT2/IRG neonates administered a single subcutaneous injection of 50 μl of tamoxifen. The next day, 3-day old postnatal hearts (PN3) were harvested, washed in ice-cold HBSS and cleaned from unwanted tissues under a stereomicroscope. They were then transferred in a tissue-cultured hood and, after additional washing steps with DMEM under sterile conditions, were minced into ˜1 mm^3 fragments and digested in a solution of DMEM/F12, 20% FBS, 1% penicillin/streptomycin and 200 units/ml Collagenase-Type II solution at 37° C. Following that, tissue explants were collected and washed twice with DMEM. Single tissue fragments were then picked under a stereomicroscope using a pipette, and cultured individually in single wells of gelatin-coated 24-well plates, with or without 1×10^5 MSCs feeders. Samples were fed every other day. The basic myocardial explant feeding medium consisted of DMEM/F12, 15% FBS, 1% penicillin/streptomycin, 1% β-mercaptoethanol, 1000 units/ml recombinant mouse LIF, 1 ng/ml recombinant mouse bFGF, and 0.1 mM nonessential amino acids. The impact of SCF was tested by supplementing the medium with 100 ng/ml recombinant murine SCF. For cKit neutralization, 100 ng/ml of rat anti-murine cKit antibody were supplemented to the medium. For assessing the role of Sdf1/Cxcr4, AMD3100 was supplemented to the medium, at a final concentration of 1 μM. Samples were then monitored daily, and clonal growth of EGFP^(+) cells was quantified every other day for 5-8 consecutive days, under a fluorescent microscope.
Myocardial explants from these animals were collected the following day, and were cultured in the presence or absence of MSC feeders. Swine MSCs were isolated and expanded from a single, healthy Yorkshire donor as previously described. Briefly, bone marrow was obtained from the iliac crest, and aspirates were passed through a density gradient to eliminate undesired cell types and were plated with 25 ml MEM Alpha media containing 20% fetal Bovine Serum in 162 cm^2 culture flasks. At 5-7 days after plating, non-adherent cells were washed away during medium changes and the remaining, plastic adherent, purified MSC population was expanded in culture. All used cells were harvested when they reached 80-90% confluence at passage 3-4, and inactivated for 3 h at 37° C. with 10 μg/ml of mitomycin C. Inactivated porcine MSC feeders were collected by trypsinization and cryopreserved in liquid nitrogen until use. For all experiments, MSCs feeders were seeded at a concentration of 2×10^5 MSCs/ml a day before use. The responses of EGFP^(+) cells under different culture conditions were monitored daily and quantified via live-cell fluorescence imaging every other day.
The effect of MSCs on NCC^kit migration was explored because recent studies reveal a chemotactic role of Sdf1/Cxcr4 axis on NCCs. Myocardial explant cultures were generated, as described above, and screened the emergence of EGFP^(+) cells in response to AMD3100, an inhibitor of the Sdf1/Cxcr4 axis. […] Thus, Sdf1/Cxcr4 axis regulates migration and differentiation of NCC^kit.

[1] = test system: iPSC^kit-derived embryoid bodies; test: in-vitro lineage tracing during cardiogenic differentiation of iPSC^kit-derived embryoid bodies pulsed with 4-OH tamoxifen
Excerpt: First, to specifically address the relationship between CNC^kit and the cKit^+/Nkx2.5^+ lineage purified from mouse ES and iPSCs-derived cardiac mesoderm, iPSCs from cKit^CreERT2/IRG adult tail-tip fibroblasts (iPSC^kit) were established. iPSC^kit stably express DsRed with no leakage of EGFP (<30 passages). As with the cKit^CreERT2/IRG mice DsRed is irreversibly replaced by EGFP in iPSC^kit-derivatives upon Cre-mediated recombination, which occurs in response to treatment with 4-OH tamoxifen. […] Thus, iPSC^kit are suitable for in-vitro lineage tracing of cKit-expressing cells. Cardiomyocyte differentiation was induced by treatment of iPSC^kit-derived embryoid bodies (EB) with ascorbic acid as previously described (FIG. 17). Successful differentiation was reflected in the development of spontaneously contracting cardiomyocytes. To genetically trace whether any of the generated cardiomyocytes were progeny of cKit^+ progenitors, EBs were pulsed with 4-OH tamoxifen at selected time-points during differentiation and monitored the emergence of spontaneously beating EGFP^+ derivatives (FIG. 17). Indeed, EGFP^+ derivatives were detected in ˜45% of the spontaneously beating EBs, confirming previous findings that mouse pluripotent stem cells can be consistently directed to generate cardiomyocytes via a cKit^+ cardiomyocyte progenitor lineage (data not shown). […]

iPSC^kit = test: quantitative gene-expression analysis during cardiogenic differentiation of iPSC^kit; conditions: noggin-treated iPSC^kit

Molecule: c1cc(CN2CCCNCCNCCCNCC2)ccc1CN1CCCNCCNCCCNCC1 [AMD3100]
- differentiation of EGFP^(+) cells into spontaneously beating/contracting cells (EGFP^(+) cells (NCC^kit); AMD3100 1 μM, compared to non-AMD3100 treated groups): massive differentiation into spontaneously contracting cardiomyocytes; also recorded: dramatic increase in the numbers of spontaneously beating EGFP^(+) cells
- migration of EGFP^(+) cells from the cultured explants (EGFP^(+) cells (NCC^kit); explants on MSC feeders): blocked the migration of EGFP^(+) cells; also recorded: blocking cell migration
- number / abundance of EGFP^(+) cells (EGFP^(+) cells (NCC^kit); explants on MSC feeders, compared to MSCs+SCF group, AMD3100 1 μM, anti-cKit antibody 100 ng/ml): significant reduction in the abundance of EGFP^(+) cells; also recorded: significantly decreased the number of EGFP^(+) cells

Molecule: O=C1O[C@H]([C@@H](O)CO)C(O)=C1O [ascorbic acid]
- spontaneously beating EBs with EGFP^+ derivatives ([1]; cardiomyocyte differentiation induced by ascorbic acid): ~45%

B1: SCF: recombinant murine SCF supplemented to the medium at 100 ng/ml (protein)
chain: KEICGNPVTDNVKDITKLVANLPNDYMITLNYVAGMDVLPSHCWLRDMVIQLSLSLTTLLDKFSNISEGLSNYSIIDKLGKIVDDLVLCMEENAPKNIKESPKRPETRSFTPEEFFSIFNRSIDAFKDFMVASDTSDCVLSSTLGPEKDSRVSVTKPFMLPPVA
- increase in proliferative capacity of EGFP^(+) cells (EGFP^(+) cells (NCC^kit); 100 ng/ml recombinant murine SCF, MSCs present): 3.5 fold
- proliferation of EGFP^(+) cells (EGFP^(+) cells (NCC^kit); SCF in the absence of MSCs): no significant differences were detected
- migration of EGFP^(+) cells from the cultured explants (EGFP^(+) cells (NCC^kit); explants on MSC feeders): neither SCF nor cKit affected EGFP^(+) cell migration

B2: noggin: BMP antagonist used for noggin-mediated antagonism of BMP signaling (protein, UniProt Q13253 28-232, looked up)
Noggin: QHYLHIRPAPSDNLPLVDLIEHPDPIFDPKEKDLNETLLRSLLGGHYDPGFMATSPPEDRPGGGGGAAGGAEDLAELDQLLRQRPSGAMPSEIKGLEFSEGLAQGKKQRLSKKLRRKLQMWLWSQTFCPVLYAWNDLGSRFWPRYVKVGSCFSKRSCSVPEGMVCKPSKSVHLTVLRWRCQRRGGQRCGWIPIQYPIISECKCSC
- generation of EGFP^+ cardiomyocytes ([1]; BMP antagonism of iPSC^kit, EBs pulsed with 4-OH tamoxifen): resulted in the generation of EGFP^+ cardiomyocytes
- expression of the epicardial progenitor cell markers WT1 and Tbx18 (iPSC^kit): transiently repressed
- expression of cKit, Wnt1, Snai2, Pax3 and MITF-H (iPSC^kit; selected time-points): dramatic upregulation
